Measured values taken from the supplement of paper PMC10567573.

B1: PLAGL1 (parent)
chain: EKPPSGTKEKKHQCDHCERCFYTR

Variants of: B1
Assay: protein stability index of a GFP-peptide fusion (GPS, HEK-293T) (PSI 1-6); higher = more stable
Settings: c terminus: a fixed tail appended
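Further: lentivirally expressed fusions sorted by FACS into six bins by GFP to DsRed ratio, PSI derived from sequencing read proportions per bin multiplied by bin number.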

Compared with AKPPSGTKEKKHQCDHCERCFYTR, CKPPSGTKEKKHQCDHCERCFYTR is lower in protein stability index: 3.43 for the first, 3.21 for the second.

Going from DKPPSGTKEKKHQCDHCERCFYTR to FKPPSGTKEKKHQCDHCERCFYTR, the protein stability index falls from 3.99 to 2.75.

Compared with GKPPSGTKEKKHQCDHCERCFYTR, HKPPSGTKEKKHQCDHCERCFYTR is lower in protein stability index: 3.6 for the first, 3.54 for the second.

Going from IKPPSGTKEKKHQCDHCERCFYTR to KKPPSGTKEKKHQCDHCERCFYTR, the protein stability index rises from 2.82 to 2.98.

Compared with LKPPSGTKEKKHQCDHCERCFYTR, MKPPSGTKEKKHQCDHCERCFYTR is higher in protein stability index: 3.62 for the first, 4.15 for the second.

Compared with NKPPSGTKEKKHQCDHCERCFYTR, PKPPSGTKEKKHQCDHCERCFYTR is lower in protein stability index: 3.59 for the first, 3.22 for the second.

Compared with QKPPSGTKEKKHQCDHCERCFYTR, RKPPSGTKEKKHQCDHCERCFYTR is lower in protein stability index: 3.87 for the first, 3.02 for the second.

First: SKPPSGTKEKKHQCDHCERCFYTR
Second: TKPPSGTKEKKHQCDHCERCFYTR
The protein stability index of the first is lower: 3.11 for the first, 3.36 for the second.

First: VKPPSGTKEKKHQCDHCERCFYTR
Second: WKPPSGTKEKKHQCDHCERCFYTR
The protein stability index of the first is higher: 3.57 for the first, 3.35 for the second.

Going from YKPPSGTKEKKHQCDHCERCFYTR to EAPPSGTKEKKHQCDHCERCFYTR, the protein stability index rises from 3.04 to 3.94.

Going from ECPPSGTKEKKHQCDHCERCFYTR to EDPPSGTKEKKHQCDHCERCFYTR, the protein stability index rises from 3.62 to 4.26.

First: EEPPSGTKEKKHQCDHCERCFYTR
Second: EFPPSGTKEKKHQCDHCERCFYTR
The protein stability index of the first is higher: 3.9 for the first, 3.44 for the second.

First: EGPPSGTKEKKHQCDHCERCFYTR
Second: EHPPSGTKEKKHQCDHCERCFYTR
The protein stability index of the first is lower: 3.44 for the first, 3.65 for the second.

First: EIPPSGTKEKKHQCDHCERCFYTR
Second: ELPPSGTKEKKHQCDHCERCFYTR
The protein stability index of the first is higher: 3.72 for the first, 3.32 for the second.

Compared with EMPPSGTKEKKHQCDHCERCFYTR, ENPPSGTKEKKHQCDHCERCFYTR is higher in protein stability index: 2.93 for the first, 4.05 for the second.

Compared with EPPPSGTKEKKHQCDHCERCFYTR, EQPPSGTKEKKHQCDHCERCFYTR is higher in protein stability index: 4.08 for the first, 4.12 for the second.

First: ERPPSGTKEKKHQCDHCERCFYTR
Second: ESPPSGTKEKKHQCDHCERCFYTR
The protein stability index of the first is lower: 3.27 for the first, 3.95 for the second.

First: ETPPSGTKEKKHQCDHCERCFYTR
Second: EVPPSGTKEKKHQCDHCERCFYTR
The protein stability index of the first is lower: 3.52 for the first, 3.86 for the second.

Going from EWPPSGTKEKKHQCDHCERCFYTR to EYPPSGTKEKKHQCDHCERCFYTR, the protein stability index falls from 3.67 to 3.17.

Compared with EKAPSGTKEKKHQCDHCERCFYTR, EKCPSGTKEKKHQCDHCERCFYTR is lower in protein stability index: 4.29 for the first, 3.98 for the second.

Going from EKDPSGTKEKKHQCDHCERCFYTR to EKEPSGTKEKKHQCDHCERCFYTR, the protein stability index falls from 4.19 to 3.83.

First: EKFPSGTKEKKHQCDHCERCFYTR
Second: EKGPSGTKEKKHQCDHCERCFYTR
The protein stability index of the first is lower: 3.54 for the first, 3.63 for the second.

Compared with EKHPSGTKEKKHQCDHCERCFYTR, EKIPSGTKEKKHQCDHCERCFYTR is higher in protein stability index: 3.33 for the first, 3.58 for the second.

Going from EKKPSGTKEKKHQCDHCERCFYTR to EKLPSGTKEKKHQCDHCERCFYTR, the protein stability index falls from 3.6 to 3.32.

Going from EKMPSGTKEKKHQCDHCERCFYTR to EKNPSGTKEKKHQCDHCERCFYTR, the protein stability index rises from 3.41 to 3.94.

Going from EKQPSGTKEKKHQCDHCERCFYTR to EKRPSGTKEKKHQCDHCERCFYTR, the protein stability index falls from 3.8 to 3.75.

Compared with EKSPSGTKEKKHQCDHCERCFYTR, EKTPSGTKEKKHQCDHCERCFYTR is lower in protein stability index: 3.78 for the first, 3.68 for the second.

First: EKVPSGTKEKKHQCDHCERCFYTR
Second: EKWPSGTKEKKHQCDHCERCFYTR
The protein stability index of the first is higher: 3.97 for the first, 3.13 for the second.

Going from EKYPSGTKEKKHQCDHCERCFYTR to EKPASGTKEKKHQCDHCERCFYTR, the protein stability index rises from 3.5 to 3.79.

Compared with EKPCSGTKEKKHQCDHCERCFYTR, EKPDSGTKEKKHQCDHCERCFYTR is higher in protein stability index: 3.74 for the first, 4.31 for the second.

First: EKPESGTKEKKHQCDHCERCFYTR
Second: EKPFSGTKEKKHQCDHCERCFYTR
The protein stability index of the first is higher: 3.88 for the first, 3.44 for the second.

Going from EKPGSGTKEKKHQCDHCERCFYTR to EKPHSGTKEKKHQCDHCERCFYTR, the protein stability index falls from 3.99 to 3.56.

Compared with EKPISGTKEKKHQCDHCERCFYTR, EKPKSGTKEKKHQCDHCERCFYTR is lower in protein stability index: 3.57 for the first, 3.53 for the second.

Going from EKPLSGTKEKKHQCDHCERCFYTR to EKPMSGTKEKKHQCDHCERCFYTR, the protein stability index rises from 3.28 to 3.45.

First: EKPNSGTKEKKHQCDHCERCFYTR
Second: EKPQSGTKEKKHQCDHCERCFYTR
The protein stability index of the first is higher: 3.58 for the first, 3.48 for the second.

First: EKPRSGTKEKKHQCDHCERCFYTR
Second: EKPSSGTKEKKHQCDHCERCFYTR
The protein stability index of the first is higher: 4.31 for the first, 3.99 for the second.

Compared with EKPTSGTKEKKHQCDHCERCFYTR, EKPVSGTKEKKHQCDHCERCFYTR is lower in protein stability index: 3.44 for the first, 3.19 for the second.

Compared with EKPWSGTKEKKHQCDHCERCFYTR, EKPYSGTKEKKHQCDHCERCFYTR is higher in protein stability index: 2.96 for the first, 3.41 for the second.

Going from EKPPAGTKEKKHQCDHCERCFYTR to EKPPCGTKEKKHQCDHCERCFYTR, the protein stability index rises from 3.17 to 3.72.

First: EKPPDGTKEKKHQCDHCERCFYTR
Second: EKPPEGTKEKKHQCDHCERCFYTR
The protein stability index of the first is higher: 4.16 for the first, 3.72 for the second.

Compared with EKPPFGTKEKKHQCDHCERCFYTR, EKPPGGTKEKKHQCDHCERCFYTR is higher in protein stability index: 3.19 for the first, 3.53 for the second.

First: EKPPHGTKEKKHQCDHCERCFYTR
Second: EKPPIGTKEKKHQCDHCERCFYTR
The protein stability index of the first is lower: 3.83 for the first, 3.97 for the second.

First: EKPPKGTKEKKHQCDHCERCFYTR
Second: EKPPLGTKEKKHQCDHCERCFYTR
The protein stability index of the first is higher: 3.88 for the first, 3.75 for the second.

Compared with EKPPMGTKEKKHQCDHCERCFYTR, EKPPNGTKEKKHQCDHCERCFYTR is higher in protein stability index: 3.48 for the first, 3.79 for the second.

Compared with EKPPPGTKEKKHQCDHCERCFYTR, EKPPQGTKEKKHQCDHCERCFYTR is lower in protein stability index: 3.54 for the first, 3.42 for the second.

Compared with EKPPRGTKEKKHQCDHCERCFYTR, EKPPTGTKEKKHQCDHCERCFYTR is higher in protein stability index: 3.29 for the first, 3.34 for the second.

Compared with EKPPVGTKEKKHQCDHCERCFYTR, EKPPWGTKEKKHQCDHCERCFYTR is lower in protein stability index: 3.83 for the first, 3.1 for the second.
